According to the supplement of paper PMC11246515:
± gives the standard deviation of the averaged measurements.

Assay: total protein half-life in vivo (active degradation + dilution); higher = more stable protein
[1] = E. coli NCM3722 delta-clpP delta-lon delta-hslV, growth: N-lim chemostat, doubling time 6 h
[2] = E. coli NCM3722 delta-clpP, growth: N-lim chemostat, doubling time 6 h
[3] = E. coli NCM3722 delta-hslV, growth: N-lim chemostat, doubling time 6 h
[4] = E. coli NCM3722 delta-lon, growth: N-lim chemostat, doubling time 6 h
[5] = E. coli NCM3722 delta-smpB, growth: N-lim chemostat, doubling time 6 h
[6] = wild type E. coli NCM3722, growth: C-lim chemostat, doubling time 12 h
[7] = wild type E. coli NCM3722, growth: N-lim chemostat, doubling time 6 h
[8] = wild type E. coli NCM3722, growth: N-lim chemostat, doubling time 12 h
[9] = wild type E. coli NCM3722, growth: P-lim chemostat, doubling time 6 h
[10] = wild type E. coli NCM3722, growth: P-lim chemostat, doubling time 12 h

| Sequence | total protein half-life in vivo [1] [h] | total protein half-life in vivo [2] [h] | total protein half-life in vivo [3] [h] | total protein half-life in vivo [4] [h] | total protein half-life in vivo [5] [h] | total protein half-life in vivo [6] [h] | total protein half-life in vivo [7] [h] | total protein half-life in vivo [8] [h] | total protein half-life in vivo [9] [h] | total protein half-life in vivo [10] [h] | total protein half-life in vivo (wild type E. coli NCM3722, growth: C-lim chemostat, doubling time 3 h) [h] | total protein half-life in vivo (wild type E. coli NCM3722, growth: C-lim chemostat, doubling time 6 h) [h] |
| --- | --- | --- | --- | --- | --- | --- | --- | --- | --- | --- | --- | --- |
| MRNLVKYVGIGLLVMGLAACDDKDTNATAQGSVAESNATGNPVNLLDGKLSFSLPADMTDQSGKLGTQANNMHVWSDATGQKAVIVIMGDDPKEDLAVLAKRLEDQQRSRDPQLQVVTNKAIELKGHKMQQLDSIISAKGQTAYSSVILGNVGNQLLTMQITLPADDQQKAQTTAENIINTLVIQ [P0AEE1] | 6.11 ± 1.1 | 5.96 ± 0.21 | 5.42 ± 0.085 | 6.24 ± 0.22 | 6.05 ± 1.3 | 11.3 ± 1 | 5.6 ± 0.16 | 10.9 ± 0.59 | 5.55 ± 1.2 | 10.9 ± 0.47 | – | – |
| MRNRTLADLDRVVALGGGHGLGRVLSSLSSLGSRLTGIVTTTDNGGSTGRIRRSEGGIAWGDMRNCLNQLITEPSVASAMFEYRFGGNGELSGHNLGNLMLKALDHLSVRPLEAINLIRNLLKVDTHLIPMSEHPVDLMAIDDQGHEVYGEVNIDQLTTPIQELLLTPNVPATREAVHAINEADLIIIGPGSFYTSLMPILLLKEIAQALRRTPAPMVYIGNLGRELSLPAANLKLESKLAIMEQYVGKKVIDAVIVGPKVDVSAVKERIVIQEVLEASDIPYRHDRQLLHNALEKALQALG | 4.62 ± 0.5 | 4.2 ± 0.13 | 4.3 ± 0.14 | 5.33 ± 0.18 | 4.5 ± 0.17 | 10.3 ± 1.7 | 4.6 ± 0.073 | 7.33 ± 0.076 | 6.31 ± 0.59 | 12.1 ± 0.98 | 3.16 ± 0.085 | 5.45 ± 0.32 |
| MRNTLIPILVAICLFITGVAILNIQLWYSAKAEYLAGARYAANNINHILEEASQATQTAVNIAGKECNLEEQYQLGTEAALKPHLRTIIILKQGIVWCTSLPGNRVLLSRIPVFPDSNLLLAPAIDTVNRLPILLYQNQFADTRILVTISDQHIRGALNVPLKGVRYVLRVADDIIGPTGDVMTLNGHYPYTEKVHSTKYHFTIIFNPPPLFSFYRLIDKGFGILIFILLIACAAAFLLDRYFNKSATPEEILRRAINNGEIVPFYQPVVNGREGTLRGVEVLARWKQPHGGYISPAAFIPLAEKSGLIVPLTQSLMNQVARQMNAIASKLPEGFHIGINFSASHIISPTFVDECLNFRDSFTRRDLNLVLEVTEREPLNVDESLVQRLNILHENGFVIALDDFGTGYSGLSYLHDLHIDYIKIDHSFVGRVNADPESTRILDCVLDLARKLSISIVAEGVETKEQLDYLNQNYITFQQGYYFYKPVTYIDLVKIILSKPKVKVVVE | 3.79 | – | – | 4.37 | 6.19 ± 0.68 | – | 4.59 | 11.9 ± 0.31 | – | – | – | – |
